The values below come from patent publication US20240084003A1 (SIMCERE ZAIMING PHARMACEUTICAL, published 2024).

Assay [1] has as its target T1, monkey CD22 protein (ACROBiosystems, catalog number SI2-R52Ha) (monkey, UniProt F6W485 20-688).
T1 construct: commercial protein; also called monkey CD22-ECD; monkey CD22-ECD-His
T1 sequence: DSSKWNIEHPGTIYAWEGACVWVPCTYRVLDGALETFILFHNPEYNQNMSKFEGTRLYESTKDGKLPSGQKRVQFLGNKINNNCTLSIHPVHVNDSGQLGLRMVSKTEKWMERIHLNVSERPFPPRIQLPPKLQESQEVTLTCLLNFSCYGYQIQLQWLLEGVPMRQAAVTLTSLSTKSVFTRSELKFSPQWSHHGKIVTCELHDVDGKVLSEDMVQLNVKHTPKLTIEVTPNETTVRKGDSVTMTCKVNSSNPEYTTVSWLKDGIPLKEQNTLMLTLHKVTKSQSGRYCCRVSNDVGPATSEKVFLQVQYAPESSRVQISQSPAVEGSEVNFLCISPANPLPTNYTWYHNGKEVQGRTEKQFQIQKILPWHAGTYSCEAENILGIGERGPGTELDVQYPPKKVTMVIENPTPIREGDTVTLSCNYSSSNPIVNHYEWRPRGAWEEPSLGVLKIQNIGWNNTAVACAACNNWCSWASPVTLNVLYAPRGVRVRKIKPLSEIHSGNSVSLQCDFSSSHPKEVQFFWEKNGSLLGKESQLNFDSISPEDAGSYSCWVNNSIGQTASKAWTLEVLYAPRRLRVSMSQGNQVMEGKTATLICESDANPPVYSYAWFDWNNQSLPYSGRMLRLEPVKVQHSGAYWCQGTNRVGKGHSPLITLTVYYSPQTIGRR
As to the kind of experiment: ELISA, coated monkey CD22 protein, antibody 10 nM. The procedure, abridged: (§1)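 Plates were coated overnight at 4° C with 2 μg/mL CD22 protein in PBS and blocked with PBS + 2% BSA. Chimeric antibodies were incubated for 2 h at 37° C, then HRP-labelled secondary for 2 h at 37° C. Bound antibody was read by TMB colour development (30 min, RT) stopped with 1.0 N HCl.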
(In general: An ELISA detects its analyte on a solid surface through an enzyme-linked reagent.)

Assay [2] has as its target T1, monkey CD22 protein (ACROBiosystems, …). As to the kind of experiment: ELISA, coated monkey CD22 protein, antibody 0.00001 nM. The procedure, abridged: as §1
Assay [3] has the same target. As to the kind of experiment: ELISA, coated monkey CD22 protein, antibody 100 nM. The procedure, abridged: as §1
Assay [4] has as its target T2, CD22 on cynomolgus monkey peripheral blood B cells (cynomolgus monkey (Macaca fascicularis)).
T2 construct: whole, on cells; also called cynomolgus monkey B cells
As to the kind of experiment: FACS, cynomolgus PBMC, CD20+ B cells, antibody 10 nM. The procedure, abridged: (§2)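 Readout: % chimeric-antibody-positive cells among CD20+ gated B cells, FACS. Cyno PBMC (Ficoll) in PBS/1% BSA; test Ab plus BV605 anti-CD20, 1 h RT; APC anti-hIgG Fc secondary, 30 min RT dark; washes between steps.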
On the technique in general: A flow cytometer gives signals particle by particle.

Assay [5] concerns the target T1, monkey CD22 protein (ACROBiosystems, …). As to the kind of experiment: ELISA, coated monkey CD22 protein, antibody 0.01 nM. The procedure, abridged:
as §1

Assay [6] has the same target. As to the kind of experiment: ELISA, coated monkey CD22 protein, antibody 0.001 nM. The gist of the method: as §1
For assay [7], the target named is T2, CD22 on cynomolgus monkey peripheral …. As to the kind of experiment: FACS, cynomolgus PBMC, CD20+ B cells, antibody 100 nM. The gist of the method: as §2
The target is the same in assay [8]. As to the kind of experiment: FACS, cynomolgus PBMC, CD20+ B cells, antibody 1 nM. The procedure, abridged: as §2
Assay [9] concerns the target T1, monkey CD22 protein (ACROBiosystems, …). As to the kind of experiment: ELISA, coated monkey CD22 protein, antibody 0.0001 nM. The procedure, abridged:
as §1

The target is the same in assay [10]. As to the kind of experiment: ELISA, coated monkey CD22 protein, antibody 0.1 nM. The gist of the method:
as §1

B1: F1.200.11 (antibody, human IgG1, kappa, V domains shown)
VH: QNQLVQSGPELKKPGETVKISCKASGYTFTTAGMQWVQKMPGKGFKWIGWINTLSGEPKYAEDFKGRFAFSLETSATTAYLQISNLKNEDTATYFCARAYYSNLYWYFDVWGTGTTVTVSS
VL: DIVMTQSQKFMSTTVGDRVTITCKASQNVVTAVAWYQQKPGQSPKVLIYSASNRYSGVPDRFTGSGSGTDFTLTISNMHSEDLANYFCHQYSSYPFTFGSGTKLEIKR
notes: human-murine chimeric IgG1 kappa
For B1, the OD450 in assay [1] came to 1.23 OD450; in assay [2] it was 0.06 OD450; in assay [3], 1.25 OD450; in assay [5], 0.19 OD450; in assay [6] it was 0.08 OD450; in assay [9], 0.06 OD450. The OD450 in [10] is 0.62 OD450. Moreover, the figures for the “Proportion of chimeric antibody positive cells to B cells (%)” value (“Proportion … (%)” below) in assay [4], in assay [7] and in assay [8] were 37%, 56% and 21%, respectively.

B2: F1.172.13 (antibody, human IgG1, kappa, V domains shown)
VH: QVTLKESGPGILQSSQTLSLTCSFSGFSLSTSGMGVSWIRQPSGKGLEWLAHIYWDDDKRYNPSLKSRLTISKDTSRNQVFLKITSVDTADTATYYCARAPPPNWDEYYFDYWGQGTTLTVSS
VL: DIQMTQSPASLSASVGETVTITCRASGNIHNSLAWYQQKQGKSPQLLVHNAKTLADGVPSRFSGSGSGTQYSLKINSLQPEDFGSYYCQHFWSTPPFGGGTKLEIKR
notes: as for B1
For B2, the OD450 in assay [1] was determined as 2.93 OD450; in assay [2], 0.09 OD450; in [3], 3.21 OD450; in assay [5], 2.47 OD450; in assay [6] it was 0.82 OD450; in assay [9], 0.18 OD450. This molecule also showed an OD450 in [10] of 2.78 OD450. The “Proportion … (%)” value was found to be 31% in [4], 34% in assay [7] and 30% in [8].

B3: F1.245.2 (antibody, human IgG1, kappa, V domains shown)
VH: EVQLQQSGAELVKPGASVKLSCTGSGFNIKDYYIHWVKQRTEQGLEWMGRIDPEDGETEYAPKFQDEATITSDTSSNTAYLQLSSLTYEDTAVYYCAREAAGYFYRGSSYGYFDVWGTGTTVTVSS
VL: DFQMTQTTSFLSASLGDRVTISCSASQDISNYLNWYQQKPDGTVKLLIYYTSSLHSGVPSRFSGSGSGTDYSLTISNLEPEDIATYYCQQYSMLPYTFGGGTKLEMER
notes: as for B1
Consider B3, for which the OD450 in [1] amounted to 0.06 OD450; in [2], 0.06 OD450; in assay [3], 0.08 OD450; in assay [5] it was 0.06 OD450; in assay [6] it was 0.06 OD450; in assay [9], 0.06 OD450. The molecule also had an OD450 in assay [10] of 0.06 OD450. Also, the “Proportion … (%)” value in assay [4] is 17%; in assay [7], 17%; in assay [8], 16%.

B4: F1.17.1 (antibody, human IgG1, kappa, V domains shown)
VH: QVQLKESGPGLVAPSQSLSITCTVSGFSLSRYTVHWVRQPPGKGLEWLGMIWGGGSTDYNSALKSRLSISKDNSKSQVFLKMNSLQTDDTAMYYCARPHDFDAGGFAYWGQGTLVTVSA
VL: QIVLTQSPAILSTSPGEKVTMTCSASSRVNYMYWYQQKPGSSPRLLIYDTSNLASGVPVRFSGSGSGTSYSLTISRMEAEDAATYYCQQWTSYPLTFGAGTKLELKR
notes: as for B1
As for B4, the OD450 in [1] was 2.16 OD450; in assay [2] it was 0.07 OD450; in assay [3] it was 1.91 OD450; in assay [5], 1.75 OD450; in [6], 0.51 OD450; in [9], 0.13 OD450. The OD450 in [10] worked out at 1.99 OD450. In addition, the “Proportion … (%)” value in assay [4] turned out to be 62%; in assay [7] it was 68%; in [8], 60%.

B5: F1.216.2 (antibody, human IgG1, kappa, V domains shown)
VH: QVQLQQSGPEVVRPGASVKISCKASGYAFSSSWMNWMKQRPGKALEWIGRIYPGDGDTNYSGEFKVKATLTADKSSSTAYMQLSSLTSEDSAVYFCAREGSYYSNPWYFDYWGQGTTLTVSS
VL: DVLVTQTPLSLPVSLGDQASISCRSSQSIVQSNGDTYLEWYLQKPGQSPKLLIYKVSNRFSGVPDRFSGSGSGTDFTLKISRVEAEDLGVYYCFQGSHVPFTFGSGTKLEIKR
notes: as for B1
As for B5, the OD450 turned out to be 2.15 OD450 in assay [1]; 0.09 OD450 in [2]; 1.94 OD450 in assay [3]; 2.04 OD450 in assay [5]; 0.91 OD450 in assay [6]; 0.21 OD450 in assay [9]. In [10], this molecule had an OD450 of 2.24 OD450. The results for the “Proportion … (%)” value in [4], in [7] and in [8] were 25%, 34% and 22%, respectively.

B6: F1.60.9 (antibody, human IgG1, kappa, V domains shown)
VH: QVQLKESGPGLVAPSQSLSITCTVSGLSLNNYGVSWVRQPPGKGLEWLGVIWGDGSTNYHSALISRLSISKDNSKSQVFLKLNSLHTDDTATYYCAINWGDYWGQGTTLIVSS
VL: DIKMTQSPSSMNASLGERVTITCKASQDINSYLSWFQQKPGKSPKILIYRANRLIDGVPSRFSGSGSGQDYSLTISSLEYEDMGIYYCLQYGVFPLTFGAGTKLELKR
notes: as for B1
On to B6, for which the OD450 was found to be 0.07 OD450 in assay [1]; 0.06 OD450 in [2]; 0.09 OD450 in [3]; 0.05 OD450 in assay [5]; 0.05 OD450 in [6]; 0.06 OD450 in assay [9]. Moreover, the OD450 in assay [10] worked out at 0.06 OD450. Also, the “Proportion … (%)” value came out at 16% in assay [4], 18% in [7] and 16% in assay [8].

B7: F1.120.15 (antibody, human IgG1, kappa, V domains shown)
VH: QVQLQQSGPELVKPGASVKISCKASGNAFSNSWMNWVKQRPGKGLEWIGRVYSEDGDTQYNGKFRDKATLTADRSTSTAYMQLSSLTSEDSAVYFCARWLIYYGTYGAMDYWGQGTSVTVSS
VL: DIQMTQTTSSLSASLGDRVTISCRASQDINNYLNWYHQKPDGTVKLLIYFTSRPYSGVPSRFSGSGSGTDYSLTISNLEQEDIATYFCQQGNTLPWTFGGGTKLEIKR
notes: as for B1
Take B7: the OD450 in assay [1] was found to be 1.9 OD450; in assay [2] it was 0.06 OD450; in [3] it was 1.64 OD450; in [5], 0.65 OD450; in assay [6], 0.16 OD450; in assay [9], 0.07 OD450. Moreover, the OD450 in assay [10] is 1.56 OD450. For the same molecule, the “Proportion … (%)” value in assay [4] is 86%; in assay [7], 93%; in assay [8], 27%.

B8: F1.192.1 (antibody, human IgG1, kappa, V domains shown)
VH: AVQLQQSGVELVRPGASVKLSCTGSDFNIKEDYIHWVKQRPEQGLEWIGWIDPENGDTEYASKFQGKATITADTSSNTAYLQLSSLTSEDTAVYYCATYGSLDYWGQGTTLTVSS
VL: DIKMTQSPSSMYAFLGERVTITCKASQGINSFLTWFQQKPGKSPKTLIYRANRLVDGVPSRFSGSGSGQDYSLTISSLEYEDVGIYYCLQYDEFPRTFGGGTKLEIKR
notes: as for B1
For the molecule B8, the OD450 in assay [1] was determined as 0.84 OD450; in assay [2], 0.07 OD450; in [3] it was 1.21 OD450; in [5], 0.19 OD450; in [6], 0.07 OD450; in assay [9], 0.07 OD450. In [10], this molecule registered an OD450 of 0.53 OD450. Besides, the “Proportion … (%)” value was found to be 30% in assay [4], 38% in assay [7] and 22% in [8].
